From patent US20250122304A1, “PRE-TARGETING” (Precirix N.V., priority 2022, published 2025) come the findings set out here.

T1: human FAP (Homo sapiens, UniProt Q12884)
T1 sequence (Q12884 1-760): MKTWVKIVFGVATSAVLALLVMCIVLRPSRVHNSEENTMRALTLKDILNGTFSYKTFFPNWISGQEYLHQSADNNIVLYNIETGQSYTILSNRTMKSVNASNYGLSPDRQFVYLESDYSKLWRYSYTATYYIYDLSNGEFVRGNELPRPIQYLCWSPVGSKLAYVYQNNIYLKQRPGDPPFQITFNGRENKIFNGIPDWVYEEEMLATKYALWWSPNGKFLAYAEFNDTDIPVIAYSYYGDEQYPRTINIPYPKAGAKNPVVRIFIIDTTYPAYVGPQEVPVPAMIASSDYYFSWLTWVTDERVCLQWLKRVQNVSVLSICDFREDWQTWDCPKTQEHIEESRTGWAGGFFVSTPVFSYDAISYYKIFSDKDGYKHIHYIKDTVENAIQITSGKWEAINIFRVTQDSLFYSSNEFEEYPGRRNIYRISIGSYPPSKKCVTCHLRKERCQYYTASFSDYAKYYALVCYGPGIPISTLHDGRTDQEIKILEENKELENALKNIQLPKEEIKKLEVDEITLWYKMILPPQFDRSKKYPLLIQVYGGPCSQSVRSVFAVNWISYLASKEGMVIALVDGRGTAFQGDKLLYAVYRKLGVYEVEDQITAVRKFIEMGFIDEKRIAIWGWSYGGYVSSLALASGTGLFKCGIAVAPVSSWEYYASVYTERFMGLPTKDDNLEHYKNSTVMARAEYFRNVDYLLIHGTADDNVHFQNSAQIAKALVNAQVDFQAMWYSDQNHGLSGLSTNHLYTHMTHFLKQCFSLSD

T2: human fibroblast activation protein (FAP) (human, UniProt Q12884 26-760)
T2 construct: also called human FAP; hFAP
T2 sequence: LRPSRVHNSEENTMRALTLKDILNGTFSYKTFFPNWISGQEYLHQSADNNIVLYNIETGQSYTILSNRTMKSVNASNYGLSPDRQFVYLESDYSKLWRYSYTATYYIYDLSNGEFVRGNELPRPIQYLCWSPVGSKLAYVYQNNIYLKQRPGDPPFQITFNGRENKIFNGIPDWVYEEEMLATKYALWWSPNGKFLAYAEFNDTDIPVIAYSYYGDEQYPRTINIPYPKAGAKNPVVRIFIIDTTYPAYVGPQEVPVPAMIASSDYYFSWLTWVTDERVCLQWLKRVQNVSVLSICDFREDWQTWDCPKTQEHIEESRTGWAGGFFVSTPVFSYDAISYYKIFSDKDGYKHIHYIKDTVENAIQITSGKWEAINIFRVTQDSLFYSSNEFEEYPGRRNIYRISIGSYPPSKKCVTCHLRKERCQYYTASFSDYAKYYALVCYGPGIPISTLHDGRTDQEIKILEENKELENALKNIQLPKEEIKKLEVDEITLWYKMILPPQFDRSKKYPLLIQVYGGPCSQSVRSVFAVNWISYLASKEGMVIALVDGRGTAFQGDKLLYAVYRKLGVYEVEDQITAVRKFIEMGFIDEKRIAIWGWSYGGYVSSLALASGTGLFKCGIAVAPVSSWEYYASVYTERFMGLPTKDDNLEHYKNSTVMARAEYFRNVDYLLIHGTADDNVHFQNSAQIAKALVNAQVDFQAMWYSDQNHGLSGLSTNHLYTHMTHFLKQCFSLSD

B1: VHH6: VHH, target FAP, SEQ ID NO 89 (protein)
VHH: DVQLVESGGGLVQAGGSLRLSCAVSGSISSANSMGWYRQAPGKQRDVVAGLTTGGRSHYADSVKGRFTISRDNAKNTVYLQMNSLKAEDTAVYYCNLWPPVQGYWGQGTQVTVSS
B2: VHH1: VHH, target FAP, SEQ ID NO 4 (protein)
VHH: DVQLVESGGGLVQPGGSLRLSCVASGRLSSSNSMAWYRQVPGKRRELVAGITGGGETNYADFVGGRFTISRDNAKNGLYLQLNGLKPEDTAAYYCNFWPPLINYWGQGTQVTVSS
modifications: VHH1
B3: VHH8: VHH, target FAP, SEQ ID NO 91 (protein)
VHH: QVQLQESGGGTVQPGGSLRLSCAASGISVSIASMAWYRQAPGKQRELVAGIISGGSTNYADSVKGRFTISRDNAKKVVLLQMNSLKPEDTAVYYCNTYPPFVGPGATATWGQGTQVTVSSAAAYPYDVPDYGSHHHHHH
B4: VHH7: VHH, target FAP, SEQ ID NO 90 (protein)
VHH: QVQLQESGGGLVQAGGSLRLSCTASGTFSGRNAMAWYRQAPGKRRELVAGIRSDDSTNYVDSVKGRFTISRDNAKNTVYLQMNSLRPEDTAVYYCNLWPPVIGAGFGSWGQGTQVTVSSAAAYPYDVPDYGSHHHHHH
B5: VHH9: VHH, target FAP, SEQ ID NO 92 (protein)
VHH: QVQLQESGGGLVQSGGSLRLSCVASGSISSINAMGWYRQAPGNKREWVAGITSGGSTNYADAVLGRFSIFRDNPKNTVYLQMNSLKPEDTAVYYCNTWPPSTFGSWGQGTQVTVSSAAAYPYDVPDYGSHHHHHH
B6: TCO-VHH1: VHH1, functionalized with transcyclooctene (TCO) (conjugate)
VHH: B2 VHH
modifications: cyclised or stapled
B7: TCO-VHH8 (conjugate)
VHH: B3 VHH
modifications: cyclised or stapled
B8: TCO-VHH7 (conjugate)
VHH: B4 VHH
modifications: cyclised or stapled
B9: TCO-VHH9: TCO conjugated VHH9 (FAP binding) (conjugate)
VHH: B5 VHH
modifications: cyclised or stapled
B10: VHH1 (VHH)
VHH: B2 VHH
notes: Anti-FAP VHH, tested before TCO conjugation; also called VHH VHH1; unconjugated VHH1
B11: VHH8 (VHH)
VHH: QVQLQESGGGTVQPGGSLRLSCAASGISVSIASMAWYRQAPGKQRELVAGIISGGSTNYADSVKGRFTISRDNAKKVVLLQMNSLKPEDTAVYYCNTYPPFVGPGATATWGQGTQVTVSS
notes: Anti-FAP VHH, tested before TCO conjugation; also called unconjugated VHH8
B12: VHH7 (VHH)
VHH: QVQLQESGGGLVQAGGSLRLSCTASGTFSGRNAMAWYRQAPGKRRELVAGIRSDDSTNYVDSVKGRFTISRDNAKNTVYLQMNSLRPEDTAVYYCNLWPPVIGAGFGSWGQGTQVTVSS
notes: Anti-FAP VHH, tested before TCO conjugation; also called unconjugated VHH7

As usually defined, the koff is a measure of how fast the partners let go of each other. A lower koff goes with a long-lived complex. Broadly, the kon is a measure of how fast the partners come together. A low value points to slower complex formation. What is called Kd is the free concentration of one partner at which half of the binding sites on the other are occupied at equilibrium, for simple one-to-one binding.

One assay has as its target T1, human FAP. In words: BLI (Octet) binding kinetics pre- and post-TCO conjugation (Example 7, Table 17). The conditions noted are these: Post conjugation (TCO). The procedure: Five VHHs binding the target (human FAP) with different dissociation rate constants were conjugated to TCO-NHS. Using the BLI technology on Octet system the binding kinetics towards human FAP were determined for each of the five VHHs pre- and post-TCO conjugation.
For the molecule B1, the koff is 0.000157 s⁻¹ and the on-rate (kon) stood at 1.07e+06 M⁻¹ s⁻¹.
As to B2, the koff came to 4.99e-05 s⁻¹ and the on-rate constant (kon) was 694000 M⁻¹ s⁻¹.
The molecule B3 came in with a koff of 0.000559 s⁻¹ and a kon of 833000 M⁻¹ s⁻¹.
For B4 the same measures were 0.000123 s⁻¹ and 746000 M⁻¹ s⁻¹.
For B5 the same measures were 0.0012 s⁻¹ and 1.26e+06 M⁻¹ s⁻¹.

Still in this assay, the particulars now being: Pre conjugation (TCO).
With B1, the koff is 0.000188 s⁻¹ and the on-rate (kon) came out at 3.41e+06 M⁻¹ s⁻¹.
The molecule B2 gave a dissociation rate constant (koff) of 8.52e-05 s⁻¹ and a kon of 1.77e+06 M⁻¹ s⁻¹.
In the case of B3, the koff turned out to be 0.000679 s⁻¹ and the kon turned out to be 1.01e+06 M⁻¹ s⁻¹.
Regarding B4, the off-rate constant (koff) is 0.000197 s⁻¹ and the kon was 2.4e+06 M⁻¹ s⁻¹.
Turning to B5, the dissociation rate constant (koff) came out at 0.0018 s⁻¹ and the on-rate constant (kon) was found to be 3.98e+06 M⁻¹ s⁻¹.

In a further assay the target is T1, human FAP. In words: BLI click reaction with Tz-R3B23 on TCO-VHHs bound to target, span (Example 7, Table 18). The conditions noted are these: Experiment 1, click reaction with 50 nM Tz-R3B23 for 20 minutes, signal difference vs assay buffer. The procedure: Next, Octet Streptavidin (SA) Biosensors were coated with 5 μg/mL biotinylated human FAP in assay buffer (HBS+0.5% BSA+0.1% Tween20) for 5 minutes. The sensors were then dipped in wells containing a 5 nM solution of the different VHHs (both TCO conjugated and unconjugated as control) for 20 minutes (association step) and further transferred to the assay buffer (dissociation step) for 30 minutes. After the dissociation phase, that simulates the lag time, the sensors were transferred to either a well containing 50 nM of a tetrazine-coupled, non-FAP binding R3B23 (Tz-R3B23) or to a well containing assay buffer as a control. This reaction was allowed to proceed for 20 minutes (experiment 1) or 30 minutes (experiment 2) after which the sensors were washed for 30 minutes in assay buffer. In the second experiment the TCO-VHHs were measured in duplicate (referred to as assay 1 and 2 of ‘experiment 2’ in the table below). Using the epitope binning function of ‘Octet Analysis Software’ we then determined the difference in signal between the VHHs incubated with Tz-R3B23 and the VHHs incubated with assay buffer. […] The span of unconjugated VHHs was considered as noise.
B1 gave a Span of 0.0021.
Still for that read-out and setting: the same measure for B2: 0.0089.
On the same count and under the same terms, the same measure for B6: 0.0237; for B3: 0.0096; for B7: 0.0224.
On the same count and under the same terms, the same measure for B4: 0.0082.
B8 came in with a Span of 0.0145.
For the molecule B9, the Span is 0.0015.
In turn, B5 displayed a Span of 0.0040.

Still in this assay, the particulars now being: Experiment 2, 1st assay, click reaction with 50 nM Tz-R3B23 for 30 minutes, signal difference vs assay buffer.
Take B1: the Span is 0.0017.
For B2, the Span is given as 0.0004.
Same read-out and setting: the same measure for B6: 0.0334; for B3: 0.0028; for B7: 0.0218.
The same measure, in the same setting: next, B4: 0.0018; B8: 0.0186.
B9 showed a Span of 0.0091.
The same measure, in the same setting: next, B5: −0.0008.

Staying with this assay, now noted: Experiment 2, 2nd assay, click reaction with 50 nM Tz-R3B23 for 30 minutes, signal difference vs assay buffer.
For B6, the Span worked out at 0.0257.
With B7, the Span came out at 0.0341.
Molecule B8 had a Span of 0.0230.
B9 came in with a Span of 0.0113.

The assay is the same for the next values; noted with them: both experiments.
In the case of B3, the “span of unconjugated VHHs (noise)” value is given as “the highest”.

The same assay, now with this note: experiment 1 (20 minutes Tz-R3B23).
Consider B9, for which the “click reaction (span versus noise value)” value is listed as “no click reaction took place”.

The same assay, now with this note: experiment 2 (30 minutes Tz-R3B23), both assays.
With B9, the “click reaction (span versus noise value)” value is “just above the noise value”.

The target in a further assay is T2, human fibroblast activation protein …. In words: BLI (Octet), kinetics to human FAP, pre TCO conjugation.
Conditions: not given
As for the experimental part:
Using the BLI technology on Octet system the binding kinetics towards human FAP were determined for each of the five VHHs pre- and post-TCO conjugation.
In turn, B10 displayed a dissociation constant Kd of 0.0482 nM, a koff of 8.52e-05 s⁻¹ and a kon of 1.77e+06 M⁻¹ s⁻¹.
For B11 the same measures were 0.672 nM, 0.000679 s⁻¹ and 1.01e+06 M⁻¹ s⁻¹.
Take B12: the equilibrium dissociation constant (Kd) is 0.0819 nM, the koff worked out at 0.000197 s⁻¹ and the kon came to 2.4e+06 M⁻¹ s⁻¹.
